# Article PMC7190724, “Improved GPCR ligands from nanobody tethering” (Nature Communications, 2020)
# T1: PTHR1GFP (Homo sapiens, UniProt Q03431)
# T1 sequence (Q03431 27-593): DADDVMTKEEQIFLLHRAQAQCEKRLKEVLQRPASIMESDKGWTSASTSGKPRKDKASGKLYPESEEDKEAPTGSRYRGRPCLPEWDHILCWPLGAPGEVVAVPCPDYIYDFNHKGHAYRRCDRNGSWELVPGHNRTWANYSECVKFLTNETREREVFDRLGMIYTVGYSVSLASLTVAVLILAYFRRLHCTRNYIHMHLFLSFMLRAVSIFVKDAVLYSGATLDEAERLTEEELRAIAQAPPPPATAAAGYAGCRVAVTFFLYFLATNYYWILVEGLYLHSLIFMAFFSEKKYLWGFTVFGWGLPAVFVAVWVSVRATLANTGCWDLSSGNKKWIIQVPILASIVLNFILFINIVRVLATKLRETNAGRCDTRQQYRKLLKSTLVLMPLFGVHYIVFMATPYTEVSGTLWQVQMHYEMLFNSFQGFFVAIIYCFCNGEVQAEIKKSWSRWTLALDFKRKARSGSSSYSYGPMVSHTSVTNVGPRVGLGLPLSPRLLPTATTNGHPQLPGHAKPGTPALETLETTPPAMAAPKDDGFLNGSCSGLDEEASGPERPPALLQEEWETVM
# B1: VHHPTHR: nanobody that recognizes PTHR1 itself, sequence from the literature (named 22A3) (antibody, V domains shown)
# VH: EVQLVESGGGLVQAGGSLRLSCAASGNIFANNIMGWYRQPPGKEREFVAHVSHDGDSMYAVSVKGRFAISRKDATNLYLQMNSLKPEDTAIYFCRLLNIPTQGRMEGFWGQGTQVTVSS
# What was measured:
# PTHR2 = experiment: Flow cytometry binding of VHH-Alexafluor647 to HEK293 expressing PTHR2; design: species or system human; conditions: 100 nM VHH-Alexafluor647, on ice
# Method: (§1) Fig. 3 Binding of VHHs to HEK293 cell lines stably transfected with PTHRs. a Analysis of VHH binding to PTHR1, PTHR2 and variants by flow cytometry. HEK293 cell lines in suspension were incubated on ice with 100 nM VHH sortagged with Alexafluor647, pelleted by centrifugation, washed and analyzed. Data for PTHR1-GFP is found in Supplementary Fig. 1. b Analysis of VHH binding with microscopy. Adherent HEK293 cells expressing human PTHR1 were stained on ice with 50 nM VHHPTHR-tetramethylrhodamine (TMR, red) and 30 nM PTH(1-20)-fluorescein (FAM, green) for 30 min. Following staining, cells were washed and treated with fixative in preparation for image acquisition either immediately after staining (0 min) or following a 15-min incubation in medium at room temperature (15 min). Nuclei (blue) were stained with DAPI. The scale bar (20 μm) is at the bottom left image and is applicable to each image in this panel. This experiment was repeated twice with similar results.
# (§2) Suspensions of cells in PBS were stained for 1 h on ice in the presence of indicated concentrations of VHH probes functionalized with Alexafluor647. Cells were pelleted by centrifugation and washed with PBS prior to analysis by flow cytometry (BD Accuri C6). […] Data were analyzed using FlowJo version 7.6. […]
# PTHR1GFP = target: T1, PTHR1GFP; experiment: Flow cytometry binding of VHH-Alexafluor647 to HEK293 expressing PTHR1GFP; conditions: flow cytometry MFI, VHH-Alexafluor647, 1 h on ice; no plateau, estimate
# Method: (§3) Suspensions of cells in PBS were stained for 1 h on ice in the presence of indicated concentrations of VHH probes functionalized with Alexafluor647. Cells were pelleted by centrifugation and washed with PBS prior to analysis by flow cytometry (BD Accuri C6). To select intact cells gating was performed on forward scatter/side scatter profiles for analysis (see Supplementary Fig. 4 for an example of the gating strategy). Data were analyzed using FlowJo version 7.6. The median fluorescent intensity (MFI) of stained cells was used to generate VHH binding dose response curves (Supplementary Fig. 4).
# Supplementary Figure 1. […] HEK293 cell lines in suspension were incubated on ice with 100 nM VHH sortagged with Alexafluor647, pelleted by centrifugation, washed and analyzed. […]
# PTHR1GFP. This weak staining is likely related to the inability of VHHGFP to tightly bind the pH-sensitive GFP variant known as pHluorin2 engrafted into the receptor(ref. 19, main text). c) HEK293 cells stably expressing PTHR1-GFP were treated with varied doses of the indicated peptides or conjugates and activation was assessed by measuring luminescence from a cAMP-activated luciferase variant. […]
# Supplementary Figure 4. […] Cells were centrifuged, washed, and analyzed by flow cytometry via gating of intact cells (live gate) based on forward scatter/side scatter profiles (panel a). […]
# PTHR1 = experiment: Flow cytometry binding to HEK293 expressing human PTHR1; conditions: flow cytometry MFI, VHH-Alexafluor647, 1 h on ice; no plateau, estimate
# From the text: Cells were pelleted by centrifugation and washed with PBS prior to analysis by flow cytometry (BD Accuri C6).
# Supplementary Figure 4. […] Cells
# (§4) (1 picture or pasted object on this page, not shown here)
# rat PTHR1 (rPTHR1) = experiment: Flow cytometry binding of VHH-Alexafluor647 to HEK293 expressing rat PTHR1; conditions: 100 nM VHH-Alexafluor647, on ice
# Method: as §1, §2
# PTHR1_6E = experiment: Flow cytometry binding of VHH-Alexafluor647 to HEK293 expressing PTHR1_6E; design: species or system human; conditions: flow cytometry MFI, VHH-Alexafluor647, 1 h on ice
# Method: as §3
# Supplementary Figure 4. Assessment of VHH binding to PTHR1 variants by flow cytometry. Cells dislodged from tissue culture plates using trypsinization were incubated with varied concentrations of VHHs sortagged with AlexaFluor647 on ice for 1 h. Cells were centrifuged, washed, and analyzed by flow cytometry via gating of intact cells (live gate) based on forward scatter/side scatter profiles (panel a). (b) Data points represent median fluorescent intensity values ( individual data points shown, n = 2 independent replicates per condition). Connecting curves are the result of fitting a sigmoidal dose - response model to the data points. Precise estimates for VHH PTHR binding cannot be provided since the […]
# as §4
molecule,measurement,setting,value
B1,staining of cells,PTHR2,binds to PTHR1 but not PTHR2
same,half-maximal staining concentration,PTHR1GFP,100 to 200 nM
same,half-maximal staining concentration,PTHR1,100 to 200 nM
same,staining of cells,rat PTHR1 (rPTHR1),bound
same,half-maximal staining concentration,PTHR1_6E,100 to 200 nM
